Results as given in publication PMC2921341, “Interaction of Serum- and Glucocorticoid Regulated Kinase 1 (SGK1) with the WW-Domains of Nedd4-2 Is Required for Epithelial Sodium Channel Regulation” (PLoS ONE, 2010).
Numbering of substitutions follows the chain as printed.

B1: SGKY298A: SGK that contains a mutated PY motif (protein)
chain: MTVKTEAAKGTLTYSRMRGMVAILIAFMKQRRMGLNDFIQKIANNSYACKHPEVQSILKISQPQEPELMNANPSPPPSPSQQINLGPSSNPHAKPSDFHFLKVIGKGSFGKVLLARHKAEEVFYAVKVLQKKAILKKKEEKHIMSERNVLLKNVKHPFLVGLHFSFQTADKLYFVLDYINGGELFYHLQRERCFLEPRARFYAAEIASALGYLHSLNIVYRDLKPENILLDSQGHIVLTDFGLCKENIEHNSTTSTFCGTPEYLAPEVLHKQPYDRTVDWWCLGAVLYEMLYGLPPFASRNTAEMYDNILNKPLQLKPNITNSARHLLEGLLQKDRTKRLGAKDDFMEIKSHVFFSLINWDDLINKKITPPFNPNVSGPNDLRHFDPEFTEEPVPNSIGKSPDSVLVTASVKEAAEAFLGFSYAPPTDSFL
modifications: left off: FLAG, end not stated, state not stated
notes: SGK that contains a mutated PY motif
B2: SGKS422D: activated SGK; mutation of one of two phosphorylation sites (protein)
chain: B1 chain with A298Y, S422D
modifications: left off: FLAG, C-terminal, kept
notes: mutation of one of two phosphorylation sites
B3: SGK: Serum- and Glucocorticoid regulated Kinase isoform 1 (protein, UniProt O00141 1-431, looked up)
Serine/threonine-protein …: B1 chain with A298Y

Key:
ENaC [1] = experiment: Amiloride-sensitive short circuit current in FRT epithelia with ENaC: Nedd4-2 dose response with SGK, SGKY298A or GFP; type: cell-based; details: for effect on Nedd4-2 dose-response relationship for ENaC inhibition (in words): FRT epithelia with α-, β-, γENaC, 0.6 µg SGK construct, Nedd4-2 0–0.2 µg, amiloride 10 µM, n = 18
Procedure: To test the hypothesis that the interaction of the Nedd4-2 WW-domains with the SGK PY motif is required for SGK to influence Nedd4-2 function, we co-expressed α-, β- and γENaC in FRT epithelia with either wild type SGK or SGKY298A along with increasing amounts of Nedd4-2, and measured the amiloride-sensitive short circuit current.
Figure 4 The SGK PY motif is necessary for SGK to inhibit Nedd4-2. Amiloride-sensitive short-circuit sodium current (relative to 0 µg of Nedd4-2) in FRT cells 48 hr after transfection with α-, β- and γENaC and SGK (closed circles) or SGKY298A (open circles) or GFP (closed squares), in the presence of increasing amounts of Nedd4-2, n = 18. Nedd4-2 is expressed as a fraction of the amount of ENaC cDNA. Expression of SGK and SGKY298A was reported in Figure 1B of Snyder et al..
Fischer rat thyroid (FRT) cells were grown on permeable filter supports (Snapwell™, Corning USA or Millicell PCF, both with […] pore size, 12 mm diameter) in F-12 Coon's media with 5% fetal calf serum (Sigma), 100 U/ml penicillin, and 100 µg/ml streptomycin at 37°C. One day after seeding, cells were cotransfected with α-, β- and γENaC (0.07 µg each), 0.6 µg wildtype or mutant SGK, and 0–0.2 µg Nedd4-2 (Fig. 4 only). Total DNA was held constant (1 µg/millicell) using cloning vector DNA. The plasmids were mixed with Lipofectamine 2000 (Invitrogen) or TFX 50 (Promega, Madison, WI; 7.9 µg/millicell) in serum free F12 Coon's media for 15 minutes and transferred to the apical surface of the monolayer. One-six hours later, the apical media was replaced with F-12 Coon's media containing 5% fetal calf serum and amiloride (10 µM). Short-circuit current was measured […] after transfection in modified Ussing chambers connected to a voltage clamp (South Campus Electronics, Dunedin, New Zealand or Warner Instruments). The apical and basolateral surfaces were bathed in (in mM) 135 NaCl, 1.2 CaCl2, 1.2 MgCl2, 2.4 K2HPO4, 0.6 KH2PO4, 10 HEPES, pH 7.4, at 37°C and bubbled with O2. Amiloride-sensitive short-circuit current (Isc-amiloride) was determined as the difference in current with and without amiloride (10 µM) in the apical bathing solution. Data are presented as relative Isc-amiloride (Isc-amiloride relative) that was obtained by normalizing the Isc-amiloride to that of control cells transfected with αβγENaC in the same experiment. Transepithelial resistance (Rt) was monitored by applying repetitive voltage potential pulses (5 mV for 1 sec at 120 sec intervals) across the epithelium.

Nedd4-2 [2] = details: previous work; ref [19]; cited from earlier work
Description: There has been debate in the literature over detection of an interaction between SGK and Nedd4-2 in vitro, and the interaction is currently not understood at the molecular level. SGK contains a PY motif (PPFY), which might mediate interaction with the WW-domains of Nedd4/Nedd4-2. […] Two previous in vitro binding studies have asked whether the WW-domains of Nedd4-2 interact with an SGK peptide containing the PY motif. […] To test the hypothesis that the interaction of the Nedd4-2 WW-domains with the SGK PY motif is required for SGK to influence Nedd4-2 function, we co-expressed α-, β- and γENaC in FRT epithelia with either wild type SGK or SGKY298A along with increasing amounts of Nedd4-2, and measured the amiloride-sensitive short circuit current. Consistent with our previous work, we fo ...

Nedd4-2 [3] = details: SGK lacking its PY motif; ref [20]; cited from earlier work
Nedd4-2 WW-domains = experiment: GST interaction experiments, wildtype versus activated SGK on Nedd4-2 WW-domains; type: binding, human; details: GST pulldown with 50 µg WW2, WW3 or WW2–3 fusion, COS7 lysates, densitometry normalized to expression; n = 9 for WW2 and WW3, n = 6 for WW2–3
Procedure: (§1) SGK is activated by phosphorylation, via a phosphatidylinositide 3-kinase (PI3K)-dependent pathway, and SGK is then able to phosphorylate substrates such as Nedd4-2. Although we were able to detect interaction of Nedd4-2 WW-domains with wildtype SGK (Fig. 1B, C), we hypothesized that an activated form of SGK might have a higher affinity for Nedd4-2. Therefore GST interaction experiments were performed comparing the binding of wildtype SGK and activated SGK (SGKS422D) to isolated Nedd4-2 WW-domains. SGKS422D appeared to run more slowly compared to SGK, consistent with it representing a phosphorylated form of SGK [8]. […] To ask if SGKS422D has an altered effect on Na^+ transport, we measured the amiloride-sensitive short circuit current in Fischer rat thyroid (FRT) epithelia transfected with α-, β-, and γENaC and either wildtype or activated SGK (Fig. 3C). […] Instead, increased binding of SGKS422D to Nedd4-2 may be a factor in the improved ability of SGKS422D to increase amiloride-sensitive current.
(§2) Figure 3 SGKS422D binding to Nedd4-2 and stimulation of ENaC is enhanced compared to wildtype SGK. (A) SGK-FLAG or SGKS422D-FLAG were expressed in COS7 cells. […] After washing the beads, the bound proteins were eluted and analyzed by SDS-PAGE and western blotting with anti-FLAG. […] (B) The resulting bands were quantified by densitometry and normalized to total expression of either SGK or SGKS422D. […]

GST = GST interaction experiments, GST alone (control); type: binding; details: GST pulldown control, COS7 lysates, Fig. 3A
Procedure: as §1, §2

ENaC [4] = experiment: Amiloride-sensitive short circuit current in FRT epithelia transfected with α-, β- and γENaC; type: cell-based; details: serum-containing and serum-free media gave similar results, amiloride 10 µM, n = 4
Procedure: as §1, §2

Nedd4 = details: in vitro studies; ref [19]; cited from earlier work
Description: There has been debate in the literature over detection of an interaction between SGK and Nedd4-2 in vitro, and the interaction is currently not understood at the molecular level. SGK contains a PY motif (PPFY), which might mediate interaction with the WW-domains of Nedd4/Nedd4-2. […] Two previous in vitro binding studies have asked whether the WW-domains of Nedd4-2 interact with an SGK peptide containing the PY motif. One study used surface plasmon resonance and ...

Molecule | stimulation of ENaC in the presence of Nedd4-2 (in words) (ENaC [1]; FRT epithelia with ENaC and Nedd4-2) | effect on Nedd4-2 dose-response relationship for ENaC inhibition (in words) (ENaC [1]) | binding to full length Nedd4-2 (in words) (Nedd4-2 [2]) | phosphorylation of Nedd4-2 (in words) (Nedd4-2 [3]) | binding to Nedd4-2 WW-domains compared with wildtype SGK (in words) (Nedd4-2 WW-domains) | binding to GST alone (in words) (GST) | effect on amiloride-sensitive short circuit current, Isc-amiloride (in words) (ENaC [4]) | interaction with Nedd4 (in words) (Nedd4)
B1 | failed to stimulate ENaC activity in the presence of Nedd4-2 | had no effect on the Nedd4-2 dose-response relationship | not able to bind full length Nedd4-2 | less able to phosphorylate Nedd4-2 | – | – | – | –
B2 | – | – | – | – | binds Nedd4-2 WW-domains more strongly than SGK | did not bind to GST alone | greater stimulatory effect on Isc-amiloride compared to SGK | –
B3 | – | reduced inhibition, shifting the dose-response relationship to the right | Nedd4 and Nedd4-2 interact with wildtype SGK | – | – | – | stimulated Isc-amiloride significantly | Nedd4 and Nedd4-2 interact with wildtype SGK
